# Source: patent publication US9766250B2, “Method for detecting protein-protein interaction” (MEDICAL & BIOLOGICAL LABORATORIES CO., LTD., priority 2011, dated 2017)
# Residue numbers refer to the chain shown, from its start.
# B1: monomeric Kusabira-Orange 2 (protein)
# chain: MVSVIKPEMKMRYYMDGSVNGHEFTIEGEGTGRPYEGHQEMTLRVTMAEGGPMPFAFDLVSHVFCYGHRVFTKYPEEIPDYFKQAFPEGLSWERSLEFEDGGSASVSAHISLRGNTFYHKSKFTGVNFPADGPIMQNQSVDWEPSTEKITASDGVLKGDVTMYLKLEGGGNHKCQMKTTYKAAKEILEMPGDHYIGHRLVRKTEGNITEQVEDAVAHS
# modifications: Synethetic sequence of monomeric version pf KO(Kusabira-Orange)
# B2: dimeric Azami-Green (AB) (protein)
# chain: MVSVIKPEMKIKLCMRGTVNGHNFVIEGEGKGNPYEGTQILDLNVTEGAPLPFAYDILTTVFQYGNRAFTKYPADIQDYFKQTFPEGYHWERSMTYEDQGICTATSNISMRGDCFFYDIRFDGVNFPPNGPVMQKKTLKWEPSTEKMYVRDGVLKGDVNMALLLEGGGHYRCDFKTTYKAKKDVRLPDAHKVDHRIEILKHDKDYNKVKLYENAVARYSMLPSQAK
# modifications: Synthetic sequence dAG(AB)
# B3: dimeric Azami-Green (AC) (protein)
# chain: B2 chain with V124T, A189Y, K191F
# modifications: Synthetic sequence dAG(AC)
# B4: COR3.01: fluorescent protein capable of homotetramerization, SEQ ID NO: 151 (protein)
# chain: MALSKHGLTKNMTTKYRMEGCVDGHKFVITGDGIGDPFEGKQTSIDLCVVEGGPLPFSEDILSTVFDYGNRVFTKYPQDLVDYFKNSCPAGYTWQRSFLFEDGAVCTASADIRVSVEENCFYHESKFHGVNFPADGPVMKKMTTNWEPSCEKITPILNEGILKGDVTMFLLLKDGGRYRCQFDTVYKAKADAKKMPEWHFIQHELTREDRSDAKHQKWRLVENAIAYRSTLP
# modifications: Synthetic sequence COR3.01
# B5: Kusabira-Cyan1 (protein)
# chain: MVSVIKPEMKMRYYMDGSVNGHEFTVEGEGTGRPYEGKHKITLDVTKGGPLPFAFDLLSTVFSYGNRALTKYPDDIPDYFKQCFPGGYSWERKFEFEDGGLAIAKAEISLKGNCFEHKSTIEGTFPDSSPIMQNKTLGWEPSTEKMTVRDGSMKGDDAAYLKLVGGGNHKCYFTTTYTAKKKIPNLPGSHFIGHRISSVVEGTKIKVMEDAIAHLYPFNGS
# modifications: Synthetic sequence KCy1
# B6: monomericMidoriishi-Cyan1 (protein)
# chain: MVSYSKQGIAQEMRTKYRMEGSVNGHEFTIEGVGTGNPYEGKQTSELVIIKPKGKPLPFSFDILSTVFQYGNRCFTKYPADMPDYFKQAFPDGMSYERSFLFEDGGVATASWSIRLEGNCFIHNSIYHGTNFPADGPVMKKQTIGWDKSSEKMSVAKEVLRGDVTQFLLLEGGGYQRCQLHSTYKTEKPVAMPPSHVVEHQIVRTDLGQTAKGFKVKLEEHAEAHVNPLKVK
# modifications: Synthetic sequence mMiCy1
# B7: TGuv: fluorescent protein capable of homotetramerization, SEQ ID NO: 147 (protein)
# chain: MVSVIGKDMIMKLHVEGCVNGHSFKIEGDGKGKPYEGDQTVKLRVTEGGPLPFAFDILSASMCYGNRCFTKYPAEIPDIFKQTFPEGYSWERALTFEDGGFASSSSHISVRGNCFFYDVKYHGVNFPSNGPIMQRKTIGWQPSTEKLYIGEGTLKGDDTMFLKLEGGGTHKCHVLTTYKTKKDVQMPDSHFIDHRLLTSHLDKECNNVELREHAVARNSSLPSR
# modifications: Synthetic sequence TGuv
# B8: Momiji: fluorescent protein capable of homotetramerization, SEQ ID NO: 149 (protein)
# chain: MVSVIKDEMKVNLRMEGSVNGHDFVIDGLGSGKPKEGTQTIELKVVKGGPLPFAYDILTTAFHYGNRVFAKYPKDIPNYFEQSFPEGYSWERSMIFEDGGICIARNDITMDGGTFYNKVRFYGVNFPPNGPVMQKKTQKWEQSTEKMYARDGVLTGDINMALLLKGGGHYRCDFRTTYKAKEKGVKLPGYHFIDHCIEILSHRNDYNNVTLFEHAVARSGLQDKEKQQQ
# modifications: Synthetic sequence Momiji
# Assays:
# [1] = biological target: T1, mTOR(FRB) and FKBP12 interaction (Homo sapiens, UniProt P42345+P62942); test: Degree of fluorescent focus (assembly) formation after rapamycin, fluorescent proteins fused to mTOR(FRB) (Example 8, Table 1); format: cell-based; set-up: key to degree of fluorescent focus formation, Tankyrase (SAM): +++: fluorescent foci were observed in 50% or more of the HeLaS3 cells; ++: fluorescent foci were observed in 50% or less of the HeLaS3 cells; +: fluorescent foci were observed in 293T cells expressing a larger amount of proteins than that in the HeLaS3 cells; conditions: fluorescent protein fused to mTOR(FRB); for degree of fluorescent focus formation, DGKd (SAM): with FKBP12-DGKd(SAM); for degree of fluorescent focus formation, TEL (SAM): with FKBP12-TEL(SAM); for degree of fluorescent focus formation, Tankyrase (SAM): with FKBP12-Tankyrase(SAM), some combinations in 293T cells; for degree of fluorescent focus formation, P62 (PB1): with p62(PB1)-FKBP12
# T1 construct: region having the 2025th to 2114th amino acids of the mTOR protein; expressed in transfected cells; host or cells: HeLaS3; 293T for some combinations with FKBP12-Tankyrase(SAM)
# Method: Note that plasmid DNAs encoding fusion proteins composed of mTOR(FRB) and the corresponding fluorescent proteins were prepared as appropriate by the same method as that described in Example 2. Moreover, regarding the combinations of FKBP12-Tankyrase(SAM) with mKO2, mKeima, mMiCy1, mKO1, MiCy1, and TGuv, the test was conducted by introducing the genes into 293T cells. Specifically, the 293T cells were cultured in DMEM High glucose (manufactured by SIGMA ALDRICH CO.) containing 10% FBS (manufactured by Equitech-Bio Inc.). Moreover, the 293T cells were seeded onto an 8-well chamber (manufactured by Nunc A/S) 6 hours before the plasmid DNAs were introduced. Further, at the time of the transfection, 200 ng of the plasmid DNA encoding FKBP12-Tankyrase(SAM) and 200 ng of one of the plasmid DNAs encoding fusion proteins composed of the fluorescent proteins and mTOR(FRB) were diluted with 30 μl of OptiMEM (manufactured by Life Technologies Corporation), and 1.2 μl of TurboFect Transfection Reagent (manufactured by Thermo Fisher Scientific Inc.) was added thereto and stirred. Then, the resultant was further mixed with 300 μl of the culture solution, subsequently added to the 293T cells, and observed 48 hours later.
# [2] = biological target: T1, mTOR(FRB) and FKBP12 interaction; test: Degree of fluorescent focus (assembly) formation after rapamycin with TFG(PB1) (Example 9, Table 2); format: cell-based; set-up: key: ++: fluorescent foci were observed in 50% or less of the HeLaS3 cells; +: fluorescent foci were observed in the 293T cells expressing a larger amount of proteins than that in the HeLaS3 cells; conditions: fluorescent protein fused to mTOR(FRB), KO1 and dAG (AB) in 293T cells
# T1 sequence (P42345 2025-2114): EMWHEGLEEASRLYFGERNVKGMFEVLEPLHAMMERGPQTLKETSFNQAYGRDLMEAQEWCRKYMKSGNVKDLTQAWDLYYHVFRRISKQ
# T1 sequence (P62942 whole entry, the tested form may be a part): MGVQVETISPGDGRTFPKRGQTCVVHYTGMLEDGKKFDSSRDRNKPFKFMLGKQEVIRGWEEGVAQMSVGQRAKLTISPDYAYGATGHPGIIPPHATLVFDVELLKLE
Molecule,"degree of fluorescent focus formation, DGKd (SAM) [1]","degree of fluorescent focus formation, TEL (SAM) [1]","degree of fluorescent focus formation, Tankyrase (SAM) [1]","degree of fluorescent focus formation, P62 (PB1) [1]","degree of fluorescent focus formation, TFG (PB1) [2]"
B1,+++ (fluorescent foci were observed in 50% or more of the HeLaS3 cells),++ (fluorescent foci were observed in 50% or less of the HeLaS3 cells),+,+++ (fluorescent foci were observed in 50% or more of the HeLaS3 cells),
B2,+++ (fluorescent foci were observed in 50% or more of the HeLaS3 cells),+++ (fluorescent foci were observed in 50% or more of the HeLaS3 cells),++ (fluorescent foci were observed in 50% or less of the HeLaS3 cells),+++ (fluorescent foci were observed in 50% or more of the HeLaS3 cells),+
B3,+++ (fluorescent foci were observed in 50% or more of the HeLaS3 cells),+++ (fluorescent foci were observed in 50% or more of the HeLaS3 cells),++ (fluorescent foci were observed in 50% or less of the HeLaS3 cells),+++ (fluorescent foci were observed in 50% or more of the HeLaS3 cells),++ (fluorescent foci were observed in 50% or less of the HeLaS3 cells)
B4,+++ (fluorescent foci were observed in 50% or more of the HeLaS3 cells),+++ (fluorescent foci were observed in 50% or more of the HeLaS3 cells),+++ (fluorescent foci were observed in 50% or more of the HeLaS3 cells),+++ (fluorescent foci were observed in 50% or more of the HeLaS3 cells),++ (fluorescent foci were observed in 50% or less of the HeLaS3 cells)
B5,+++ (fluorescent foci were observed in 50% or more of the HeLaS3 cells),+++ (fluorescent foci were observed in 50% or more of the HeLaS3 cells),++ (fluorescent foci were observed in 50% or less of the HeLaS3 cells),+++ (fluorescent foci were observed in 50% or more of the HeLaS3 cells),
B6,+++ (fluorescent foci were observed in 50% or more of the HeLaS3 cells),+++ (fluorescent foci were observed in 50% or more of the HeLaS3 cells),+,+++ (fluorescent foci were observed in 50% or more of the HeLaS3 cells),
B7,+++ (fluorescent foci were observed in 50% or more of the HeLaS3 cells),+++ (fluorescent foci were observed in 50% or more of the HeLaS3 cells),+,+++ (fluorescent foci were observed in 50% or more of the HeLaS3 cells),
B8,+++ (fluorescent foci were observed in 50% or more of the HeLaS3 cells),+++ (fluorescent foci were observed in 50% or more of the HeLaS3 cells),+++ (fluorescent foci were observed in 50% or more of the HeLaS3 cells),+++ (fluorescent foci were observed in 50% or more of the HeLaS3 cells),++ (fluorescent foci were observed in 50% or less of the HeLaS3 cells)
